In the supplement of paper PMC6379048:

Key:
Experiment in all cases: Kd (EC50 corrected by depletion factor)
[1] = molecular target: ELAVL1 (UniProt Q15717)
Procedure, shortened: (§1)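 Over three biological replicates and two independent experiments, proteins captured on NHS-Sepharose beads carrying 5′-amino-C6 RNA oligos were quantified by label-free LC-MS/MS and normalised to the control. Capture lasted 30 min at 4°C and followed a 1 h pre-incubation at 4°C of HEK293-FT lysate (2.5 mg protein/well) with the same oligos in free form (0 nM to 30 μM). EC50 was taken from a four-parameter log-logistic fit, and Kd was EC50 corrected by a protein-dependent depletion factor.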

[2] = molecular target: T1, GPATCH3 (UniProt Q96I76)
T1 sequence: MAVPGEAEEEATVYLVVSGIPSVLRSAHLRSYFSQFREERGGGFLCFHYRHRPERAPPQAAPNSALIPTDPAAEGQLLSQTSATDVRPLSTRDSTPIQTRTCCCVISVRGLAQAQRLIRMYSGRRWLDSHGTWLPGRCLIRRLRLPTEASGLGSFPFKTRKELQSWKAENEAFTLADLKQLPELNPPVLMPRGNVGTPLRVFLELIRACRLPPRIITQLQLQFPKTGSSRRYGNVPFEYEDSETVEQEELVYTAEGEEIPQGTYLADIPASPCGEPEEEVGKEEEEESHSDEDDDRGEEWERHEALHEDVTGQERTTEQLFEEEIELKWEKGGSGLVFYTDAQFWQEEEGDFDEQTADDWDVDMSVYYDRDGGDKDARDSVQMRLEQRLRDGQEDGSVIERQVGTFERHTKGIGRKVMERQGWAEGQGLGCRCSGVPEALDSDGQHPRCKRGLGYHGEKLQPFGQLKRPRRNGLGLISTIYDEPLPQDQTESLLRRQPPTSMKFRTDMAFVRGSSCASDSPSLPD
Procedure, shortened: as §1

[3] = molecular target: T2, HNRNPDL (UniProt O14979)
T2 sequence: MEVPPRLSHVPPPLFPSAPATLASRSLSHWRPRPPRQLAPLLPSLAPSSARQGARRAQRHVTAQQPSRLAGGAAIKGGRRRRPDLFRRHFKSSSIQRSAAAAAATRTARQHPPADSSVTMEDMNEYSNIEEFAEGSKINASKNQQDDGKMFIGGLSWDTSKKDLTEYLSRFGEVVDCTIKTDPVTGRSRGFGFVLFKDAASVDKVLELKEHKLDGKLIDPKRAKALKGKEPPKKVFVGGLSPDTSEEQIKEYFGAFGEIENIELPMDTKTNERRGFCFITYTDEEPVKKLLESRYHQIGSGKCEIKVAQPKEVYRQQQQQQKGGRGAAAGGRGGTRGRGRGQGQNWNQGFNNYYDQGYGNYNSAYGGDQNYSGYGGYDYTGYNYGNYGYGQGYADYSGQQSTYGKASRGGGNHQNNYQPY
Procedure, shortened: as §1

[4] = molecular target: T3, RBMS3 (UniProt Q6XE24)
T3 sequence: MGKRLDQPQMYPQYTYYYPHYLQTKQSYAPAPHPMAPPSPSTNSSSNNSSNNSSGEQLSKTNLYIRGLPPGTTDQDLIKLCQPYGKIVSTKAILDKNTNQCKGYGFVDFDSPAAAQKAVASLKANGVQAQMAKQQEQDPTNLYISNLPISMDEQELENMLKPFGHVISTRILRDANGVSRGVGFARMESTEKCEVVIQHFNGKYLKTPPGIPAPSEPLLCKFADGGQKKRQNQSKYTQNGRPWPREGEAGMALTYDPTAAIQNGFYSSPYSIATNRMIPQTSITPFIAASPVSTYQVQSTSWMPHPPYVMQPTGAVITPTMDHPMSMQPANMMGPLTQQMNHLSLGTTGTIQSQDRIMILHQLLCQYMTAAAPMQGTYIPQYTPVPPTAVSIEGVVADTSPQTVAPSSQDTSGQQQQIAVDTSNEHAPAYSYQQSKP
Procedure, shortened: as §1

ELAVL1, sequence (Q15717 whole entry): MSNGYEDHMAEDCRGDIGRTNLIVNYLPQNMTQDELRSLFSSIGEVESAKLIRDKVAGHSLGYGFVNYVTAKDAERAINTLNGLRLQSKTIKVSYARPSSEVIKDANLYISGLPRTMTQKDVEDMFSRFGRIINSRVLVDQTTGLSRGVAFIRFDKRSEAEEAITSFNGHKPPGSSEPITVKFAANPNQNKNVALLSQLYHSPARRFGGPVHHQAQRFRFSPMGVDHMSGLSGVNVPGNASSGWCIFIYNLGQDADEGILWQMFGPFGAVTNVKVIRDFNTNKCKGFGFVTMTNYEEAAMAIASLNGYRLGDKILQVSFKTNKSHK

**Q.** For AAUAAA, which Kd [1] is on record?
**A.** 440 nM

**Q.** What about the Kd [2] of the same sequence?
**A.** 196 nM

**Q.** What about the Kd [3] of the same sequence?
**A.** 152 nM

**Q.** What about the Kd [4] of the same sequence?
**A.** 153 nM

**Q.** Which Kd [1] does the source give for UAUUUAU here?
**A.** 920 nM

**Q.** And the Kd [2]?
**A.** 243 nM

**Q.** And the Kd [3]?
**A.** 2360 nM

**Q.** What about the Kd [4] of the same sequence?
**A.** 97.3 nM
